# Data reported in patent US20140058068A1 (UNIVERSITY OF MIAMI, published 2014).
# Square brackets hold non-standard residues; d marks the D form. Ends that are not written are not given here. * marks the point of attachment. Desaminotyrosyl = O=C(CCc1ccc(O)cc1)*; NMeY = CN[C@@H](Cc1ccc(O)cc1)C(=O)O; Nle = CCCC[C@H](N)C(=O)O; Orn = NCCC[C@H](N)C(=O)O; Abu = CC[C@H](N)C(=O)O; Aoc = NCCCCCCCC(=O)O
# T1: GHRH receptor of human pituitary membrane homogenates (human, UniProt Q02643 23-423)
# T1 construct: whole, on cells; Native receptor in pituitary membrane homogenates, not intact cells; also called hGH-RH receptor
# T1 sequence (looked up): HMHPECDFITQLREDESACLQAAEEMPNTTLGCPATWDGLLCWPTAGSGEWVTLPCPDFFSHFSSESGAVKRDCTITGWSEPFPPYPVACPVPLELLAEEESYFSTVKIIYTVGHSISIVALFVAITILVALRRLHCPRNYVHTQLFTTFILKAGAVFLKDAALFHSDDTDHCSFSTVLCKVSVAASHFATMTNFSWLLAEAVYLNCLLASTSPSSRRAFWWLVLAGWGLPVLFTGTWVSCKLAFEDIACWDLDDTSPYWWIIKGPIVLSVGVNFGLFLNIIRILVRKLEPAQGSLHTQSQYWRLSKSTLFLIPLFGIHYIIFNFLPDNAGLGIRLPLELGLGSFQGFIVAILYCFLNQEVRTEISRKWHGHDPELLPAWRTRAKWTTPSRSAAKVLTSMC
# B1: [Dat^1, D-Ala^2, Orn^12, Abu^15, Orn^21, Nle^27, Asp^28, Amc^30]hGH-RH(1-30)NH2 (peptide)
# peptide: [Desaminotyrosyl][dA]DAIFTNSYR[Orn]VL[Abu]QLSAR[Orn]LLQDI[Nle]DR[Aoc]-NH2
# SMILES: CCCC[C@H](NC(=O)[C@@H](NC(=O)[C@H](CC(=O)O)NC(=O)[C@H](CCC(N)=O)NC(=O)[C@H](CC(C)C)NC(=O)[C@H](CC(C)C)NC(=O)[C@H](CCCN)NC(=O)[C@H](CCCNC(=N)N)NC(=O)[C@H](C)NC(=O)[C@H](CO)NC(=O)[C@H](CC(C)C)NC(=O)[C@H](CCC(N)=O)NC(=O)[C@H](CC)NC(=O)[C@H](CC(C)C)NC(=O)[C@@H](NC(=O)[C@H](CCCN)NC(=O)[C@H](CCCNC(=N)N)NC(=O)[C@H](Cc1ccc(O)cc1)NC(=O)[C@H](CO)NC(=O)[C@H](CC(N)=O)NC(=O)[C@@H](NC(=O)[C@H](Cc1ccccc1)NC(=O)[C@@H](NC(=O)[C@H](C)NC(=O)[C@H](CC(=O)O)NC(=O)[C@@H](C)NC(=O)CCc1ccc(O)cc1)[C@@H](C)CC)[C@@H](C)O)C(C)C)[C@@H](C)CC)C(=O)N[C@@H](CC(=O)O)C(=O)N[C@@H](CCCNC(=N)N)C(=O)NCCCCCCCC(N)=O
# notes: also called Peptide 21300
# B2: [Dat^1, D-Ala^2, Orn^12, Abu^15, Orn^21, Nle^27, Asp^28]hGH-RH(1-29)NH-CH3 (peptide)
# peptide: [Desaminotyrosyl][dA]DAIFTNSYR[Orn]VL[Abu]QLSAR[Orn]LLQDI[Nle]DR-NHMe
# SMILES: CCCC[C@H](NC(=O)[C@@H](NC(=O)[C@H](CC(=O)O)NC(=O)[C@H](CCC(N)=O)NC(=O)[C@H](CC(C)C)NC(=O)[C@H](CC(C)C)NC(=O)[C@H](CCCN)NC(=O)[C@H](CCCNC(=N)N)NC(=O)[C@H](C)NC(=O)[C@H](CO)NC(=O)[C@H](CC(C)C)NC(=O)[C@H](CCC(N)=O)NC(=O)[C@H](CC)NC(=O)[C@H](CC(C)C)NC(=O)[C@@H](NC(=O)[C@H](CCCN)NC(=O)[C@H](CCCNC(=N)N)NC(=O)[C@H](Cc1ccc(O)cc1)NC(=O)[C@H](CO)NC(=O)[C@H](CC(N)=O)NC(=O)[C@@H](NC(=O)[C@H](Cc1ccccc1)NC(=O)[C@@H](NC(=O)[C@H](C)NC(=O)[C@H](CC(=O)O)NC(=O)[C@@H](C)NC(=O)CCc1ccc(O)cc1)[C@@H](C)CC)[C@@H](C)O)C(C)C)[C@@H](C)CC)C(=O)N[C@@H](CC(=O)O)C(=O)N[C@@H](CCCNC(=N)N)C(=O)NC
# B3: [N-Me-Tyr^1, Gln^8, Orn^12, Abu^15, Orn^21, Nle^27, Asp^28]hGH-RH(1-29)NH-CH3 (peptide)
# peptide: [NMeY]ADAIFTQSYR[Orn]VL[Abu]QLSAR[Orn]LLQDI[Nle]DR-NHMe
# notes: also called Peptide 27406
# B4: [Dat^1, Gln^8, His^11, Orn^12, Abu^15, His^20, Orn^21, Nle^27, Asp^28]hGH-RH(1-29)NH-CH3 (peptide)
# peptide: [Desaminotyrosyl]ADAIFTQSYH[Orn]VL[Abu]QLSAH[Orn]LLQDI[Nle]DR-NHMe
# SMILES: CCCC[C@H](NC(=O)[C@@H](NC(=O)[C@H](CC(=O)O)NC(=O)[C@H](CCC(N)=O)NC(=O)[C@H](CC(C)C)NC(=O)[C@H](CC(C)C)NC(=O)[C@H](CCCN)NC(=O)[C@H](Cc1c[nH]cn1)NC(=O)[C@H](C)NC(=O)[C@H](CO)NC(=O)[C@H](CC(C)C)NC(=O)[C@H](CCC(N)=O)NC(=O)[C@H](CC)NC(=O)[C@H](CC(C)C)NC(=O)[C@@H](NC(=O)[C@H](CCCN)NC(=O)[C@H](Cc1c[nH]cn1)NC(=O)[C@H](Cc1ccc(O)cc1)NC(=O)[C@H](CO)NC(=O)[C@H](CCC(N)=O)NC(=O)[C@@H](NC(=O)[C@H](Cc1ccccc1)NC(=O)[C@@H](NC(=O)[C@H](C)NC(=O)[C@H](CC(=O)O)NC(=O)[C@H](C)NC(=O)CCc1ccc(O)cc1)[C@@H](C)CC)[C@@H](C)O)C(C)C)[C@@H](C)CC)C(=O)N[C@@H](CC(=O)O)C(=O)N[C@@H](CCCNC(=N)N)C(=O)NC
# notes: also called Peptide 27413
# B5: [N-Me-Tyr^1, Gln^8, Orn^12, Abu^15, Orn^21, Nle^27]hGH-RH(1-29)NH-CH3 (peptide)
# peptide: [NMeY]ADAIFTQSYR[Orn]VL[Abu]QLSAR[Orn]LLQDI[Nle]SR-NHMe
# B6: [N-Me-Tyr^1, D-Ala^2, Thr^8, Orn^12, Abu^15, Orn^21, Nle^27, Asp^28]hGH-RH(1-29)NH-CH3 (peptide)
# chain: [NMeY][dA]DAIFTTSYR[Orn]VL[Abu]QLSAR[Orn]LLQDI[Nle]DR-NHMe
# B7: [Dat^1, Gln^8, Orn^12, Abu^15, Orn^21, Nle^27, Asp^28]hGH-RH(1-29)NH-CH3 (peptide)
# peptide: [Desaminotyrosyl]ADAIFTQSYR[Orn]VL[Abu]QLSAR[Orn]LLQDI[Nle]DR-NHMe
# SMILES: CCCC[C@H](NC(=O)[C@@H](NC(=O)[C@H](CC(=O)O)NC(=O)[C@H](CCC(N)=O)NC(=O)[C@H](CC(C)C)NC(=O)[C@H](CC(C)C)NC(=O)[C@H](CCCN)NC(=O)[C@H](CCCNC(=N)N)NC(=O)[C@H](C)NC(=O)[C@H](CO)NC(=O)[C@H](CC(C)C)NC(=O)[C@H](CCC(N)=O)NC(=O)[C@H](CC)NC(=O)[C@H](CC(C)C)NC(=O)[C@@H](NC(=O)[C@H](CCCN)NC(=O)[C@H](CCCNC(=N)N)NC(=O)[C@H](Cc1ccc(O)cc1)NC(=O)[C@H](CO)NC(=O)[C@H](CCC(N)=O)NC(=O)[C@@H](NC(=O)[C@H](Cc1ccccc1)NC(=O)[C@@H](NC(=O)[C@H](C)NC(=O)[C@H](CC(=O)O)NC(=O)[C@H](C)NC(=O)CCc1ccc(O)cc1)[C@@H](C)CC)[C@@H](C)O)C(C)C)[C@@H](C)CC)C(=O)N[C@@H](CC(=O)O)C(=O)N[C@@H](CCCNC(=N)N)C(=O)NC
# notes: also called Peptide 27407
# B8: [N-Me-Tyr^1, Orn^12, Abu^15, Orn^21, Nle^27, Asp^28, Amc^30]hGH-RH(1-30)NH2 (peptide)
# peptide: [NMeY]ADAIFTNSYR[Orn]VL[Abu]QLSAR[Orn]LLQDI[Nle]DR[Aoc]-NH2
# modifications: N-terminus assumed
# SMILES: CCCC[C@H](NC(=O)[C@@H](NC(=O)[C@H](CC(=O)O)NC(=O)[C@H](CCC(N)=O)NC(=O)[C@H](CC(C)C)NC(=O)[C@H](CC(C)C)NC(=O)[C@H](CCCN)NC(=O)[C@H](CCCNC(=N)N)NC(=O)[C@H](C)NC(=O)[C@H](CO)NC(=O)[C@H](CC(C)C)NC(=O)[C@H](CCC(N)=O)NC(=O)[C@H](CC)NC(=O)[C@H](CC(C)C)NC(=O)[C@@H](NC(=O)[C@H](CCCN)NC(=O)[C@H](CCCNC(=N)N)NC(=O)[C@H](Cc1ccc(O)cc1)NC(=O)[C@H](CO)NC(=O)[C@H](CC(N)=O)NC(=O)[C@@H](NC(=O)[C@H](Cc1ccccc1)NC(=O)[C@@H](NC(=O)[C@H](C)NC(=O)[C@H](CC(=O)O)NC(=O)[C@H](C)NC(=O)[C@H](Cc1ccc(O)cc1)NC)[C@@H](C)CC)[C@@H](C)O)C(C)C)[C@@H](C)CC)C(=O)N[C@@H](CC(=O)O)C(=O)N[C@@H](CCCNC(=N)N)C(=O)NCCCCCCCC(N)=O
# notes: also called Peptide 21301
# B9: [N-Me-Tyr^1, D-Ala^2, Gln^8, Orn^12, Abu^15, Orn^21, Nle^27, Asp^28]hGH-RH(1-29)NH-CH2-CH3 (peptide)
# peptide: [NMeY][dA]DAIFTQSYR[Orn]VL[Abu]QLSAR[Orn]LLQDI[Nle]DR-NHEt
# notes: also called Peptide 28420
# Biological target: T1, GHRH receptor of human pituitary …
# Assay: radioligand competition, 125I-JV-1-42 (~0.2 nM) as competitor, human pituitary membrane homogenates
# From the text: Normal human pituitaries were purchased from the National Hormone and Peptide Program (A. F. Parlow, Los Angeles, County Harbor-UCLA Medical Center, Torrance, Calif.).
Binder,IC50,Relative affinity (Binding potency) vs JI-38
B1,3.61 nM,"1.2 fold, JI-38 = 1"
B2,3.35 nM,"1.3 fold, JI-38 = 1"
B3,0.3 nM,"14.5 fold, JI-38 = 1"
B4,2.45 nM,"1.78 fold, JI-38 = 1"
B5,1.08 nM,"4.03 fold, JI-38 = 1"
B6,0.83 nM,"5.24 fold, JI-38 = 1"
B7,3 nM,"1.45 fold, JI-38 = 1"
B8,2.99 nM,"1.45 fold, JI-38 = 1"
B9,–,"8.37 fold, JI-38 = 1"
